Laboratory results from patent US5914109.

How the values were obtained:
[1] = biological target: gp120 of HIVMN (HIV-1 strain MN) (UniProt P05877)
[2] = biological target: 20-mer V3 peptide of HIVMN (American Bio-Technologies) (HIV-1 strain MN); assay: Friguet ELISA method, V3 MN peptide
[3] = biological target: 20-mer V3 peptide of HIVMN (American Bio-Technologies) (HIV-1 strain MN); assay: competition ELISA in solution at equilibrium (Friguet method)
[4] = biological target: gp120 of HTLV-IIIB (HIV-1 isolate IIIB)
[5] = biological target: gp120 of HIVMN (HIV-1 strain MN) (UniProt P05877); remark: listed apart in the source
[6] = biological target: gp120 of HTLV-IIIB (HIV-1 isolate IIIB); remark: listed apart in the source
[7] = biological target: recombinant gp120IIIB (baculovirus, Repligen) (HIV-1 isolate IIIB) (UniProt P04578); assay: Friguet method; reference: V3IIIB peptide
[8] = biological target: recombinant gp120 protein of HIVSF2 (produced in CHO cells) (HIV-1 isolate SF-2) (UniProt P03378); assay: Friguet method; reference: V3SF-2 peptide
[9] = biological target: 20-mer V3 peptide of HIVSF2 (HIV-1 isolate SF-2); assay: ELISA on V3 peptide coated plates, mAb at 10 µg/ml
[10] = biological target: 22-mer V3 peptide of HXB2 (HIV-1 HXB2 (IIIB)); assay: ELISA on V3 peptide coated plates, mAb at 10 µg/ml
[11] = biological target: 23-mer peptide of the gp120 V3 loop of the MN strain of HIV-1 (HIV-1 strain MN); assay: ELISA on V3 peptide coated plates, mAb at 10 µg/ml
[12] = biological target: V3-CDC4 peptide (HIV-1 isolate CDC4); assay: ELISA on V3 peptide coated plates, mAb at 10 µg/ml
[13] = biological target: V3-NY5 peptide (HIV-1 isolate NY5); assay: ELISA on V3 peptide coated plates, mAb at 10 µg/ml
[14] = biological target: V3-RF peptide (HIV-1 isolate RF); assay: ELISA on V3 peptide coated plates, mAb at 10 µg/ml
[15] = biological target: V3-SC peptide (HIV-1 isolate SC); assay: ELISA on V3 peptide coated plates, mAb at 10 µg/ml
[16] = biological target: V3-WM52 peptide (HIV-1 isolate WM52); assay: ELISA on V3 peptide coated plates, mAb at 10 µg/ml
[17] = biological target: 20-mer V3 peptide of HIVSF2 (HIV-1 isolate SF-2); assay: competition ELISA in solution at equilibrium (Friguet method)
[18] = biological target: 22-mer V3 peptide of HXB2 (HIV-1 HXB2 (IIIB)); assay: as above
[19] = biological target: recombinant gp120 protein of HIVSF2 (produced in CHO cells) (HIV-1 isolate SF-2) (UniProt P03378); assay: Friguet method, ligand in solution at equilibrium; rgp120 SF-2
[20] = biological target: 20-mer V3 peptide of HIVMN (American Bio-Technologies) (HIV-1 strain MN); assay: Friguet method, ligand in solution at equilibrium; V3 peptide of MN
[21] = biological target: 22-mer V3 peptide of HXB2 (HIV-1 HXB2 (IIIB)); assay: Friguet method, ligand in solution at equilibrium; V3 peptide of HXB2
[22] = biological target: 20-mer V3 peptide of HIVSF2 (HIV-1 isolate SF-2); assay: Friguet method, ligand in solution at equilibrium; V3 peptide of SF-2
[23] = biological target: recombinant gp120IIIB (baculovirus, Repligen) (HIV-1 isolate IIIB) (UniProt P04578); assay: Friguet method, ligand in solution at equilibrium; rgp120 IIIB (row HXB2)
[24] = biological target: 22-mer V3 peptide of HXB2 (HIV-1 HXB2 (IIIB)); assay: competition ELISA in solution (Friguet method); mAb after the fourth cloning
[25] = biological target: 22-mer V3 peptide of HXB2 (HIV-1 HXB2 (IIIB)); assay: competition ELISA in solution (Friguet method); mAb after the second cloning
[26] = biological target: gp120 of HIV-1 isolate AL-1 (HIV-1 isolate AL-1)
[27] = biological target: gp120 of HIV-1 isolate RF (HIV-1 isolate RF) (UniProt P04579)
[28] = biological target: gp120 of HIV-1 isolate SF-2 (virus) (HIV-1 isolate SF-2) (UniProt P03378)
[29] = biological target: gp120 of HIV-1 isolate WMJ-2 (HIV-1 isolate WMJ-2)
[30] = biological target: gp120 of HIVMN (HIV-1 strain MN) (UniProt P05877); remark: listed apart in the source
[31] = biological target: gp120 of HTLV-IIIB (HIV-1 isolate IIIB); remark: listed apart in the source
[32] = biological target: 20-mer V3 peptide of HIVSF2 (HIV-1 isolate SF-2); assay: competition ELISA in solution (Friguet method); reference: the MN peptide

Row | Substance | 50% neutralization, CEM-SS syncytium-forming assay, IgG concentration [1] [µg/mL] | 90% neutralization, CEM-SS syncytium-forming assay, IgG concentration [1] [µg/mL] | Kd [2] [µM] | Kd [3] [µM] | minimum antigen concentration giving positive results (µg/ml of V3 peptide used to coat) [9] | minimum antigen concentration giving positive results (µg/ml of V3 peptide used to coat) [11] | minimum antigen concentration giving positive results (µg/ml of V3 peptide used to coat) [12] | minimum antigen concentration giving positive results (µg/ml of V3 peptide used to coat) [13] | minimum antigen concentration giving positive results (µg/ml of V3 peptide used to coat) [15] | minimum antigen concentration giving positive results (µg/ml of V3 peptide used to coat) [16] | Kd [17] [µM] | Kd [18] [µM] | further results
1 | human mAb 412-D (antibody) | 4.69 | > 10 | 9.1 | 9.1 |  |  |  |  |  |  |  |  | 
2 | human mAb 447-D (antibody) | 0.05 | 0.92 | 0.56 | 0.56 | 0.01 | 0.01 | 0.1 | 0.1 | 0.01 | 0.2 | 0.9 | 24 | 50% neutralization, CEM-SS syncytium-forming assay, IgG concentration [4]: 1.8 µg/mL; 90% neutralization, CEM-SS syncytium-forming assay, IgG concentration [4]: > 10 µg/mL; neutralization dose 50%, according to Nara et al. [5]: 0.052 µg/mL; neutralization dose 90%, according to Nara et al. [5]: 0.9 µg/mL; neutralization dose 50%, according to Nara et al. [6]: 1.8 µg/mL; percent neutralization at the maximum concentration of 10 µg/ml [6]: 71%; fold stronger binding than to the V3IIIB peptide [7]: 6 fold; fold stronger binding than to the V3SF-2 peptide [8]: 90 fold; minimum antigen concentration giving positive results (µg/ml of V3 peptide used to coat) [10]: 0.2; minimum antigen concentration giving positive results (µg/ml of V3 peptide used to coat) [14]: 0.4; Kd [19]: 0.01 µM; Kd [20]: 0.56 µM; Kd [21]: 24 µM; Kd [22]: 0.9 µM; Kd [23]: 3.9 µM; Kd [24]: 16 µM; Kd [25]: 64 µM
3 | human mAb 537-D (antibody) | 2.69 | > 10 | 1.3 | 1.3 | 1 | 0.6 | 1 | 0.8 | 1 | 2 | 8.5 | > 100 | neutralization endpoint, MT-4 cell killing assay [26]: 3.13 µg/mL; neutralization endpoint, MT-4 cell killing assay [27]: > 50 µg/mL; neutralization endpoint, MT-4 cell killing assay [28]: > 5 µg/mL; neutralization endpoint, MT-4 cell killing assay [29]: > 50 µg/mL; neutralization endpoint, MT-4 cell killing assay [30]: 6.25 µg/mL; neutralization endpoint, MT-4 cell killing assay [31]: > 50 µg/mL; fold difference of Kd between the two V3 peptides (MN and SF-2) [32]: 7 fold
